These results are taken from patent US20230340152A1 (published 2023).

Test [1] deals with T1, Human CD73 on cells (MDA-MB-231, Jurkat CD73 knock-in, NCI-H322) (human, UniProt P21589 27-549).
T1 sequence: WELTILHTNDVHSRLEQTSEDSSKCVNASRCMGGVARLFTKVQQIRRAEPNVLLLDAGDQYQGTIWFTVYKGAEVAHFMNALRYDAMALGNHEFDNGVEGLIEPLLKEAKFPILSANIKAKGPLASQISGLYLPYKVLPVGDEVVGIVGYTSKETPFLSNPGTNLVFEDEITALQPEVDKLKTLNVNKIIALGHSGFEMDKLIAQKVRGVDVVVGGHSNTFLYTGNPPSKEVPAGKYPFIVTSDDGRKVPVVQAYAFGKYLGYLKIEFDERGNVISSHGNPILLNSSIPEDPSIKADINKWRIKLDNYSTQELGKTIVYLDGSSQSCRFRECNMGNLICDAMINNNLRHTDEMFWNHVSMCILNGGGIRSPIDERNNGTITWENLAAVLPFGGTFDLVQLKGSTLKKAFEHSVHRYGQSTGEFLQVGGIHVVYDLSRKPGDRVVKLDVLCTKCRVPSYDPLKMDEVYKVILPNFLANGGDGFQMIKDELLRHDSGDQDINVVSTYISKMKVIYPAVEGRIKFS
Description: cell-based or functional assay.

Test [2] deals with T1, Human CD73 on cells (MDA-MB-231, Jurkat …). Description: flow cytometry, Jurkat (CD73 knock-in) / Jurkat.
For test [3], the target named is T2, CD73 construct with chicken N- and C-terminal domain sequence with human V144 and N185 knocked in (chicken; human).
T2 chain: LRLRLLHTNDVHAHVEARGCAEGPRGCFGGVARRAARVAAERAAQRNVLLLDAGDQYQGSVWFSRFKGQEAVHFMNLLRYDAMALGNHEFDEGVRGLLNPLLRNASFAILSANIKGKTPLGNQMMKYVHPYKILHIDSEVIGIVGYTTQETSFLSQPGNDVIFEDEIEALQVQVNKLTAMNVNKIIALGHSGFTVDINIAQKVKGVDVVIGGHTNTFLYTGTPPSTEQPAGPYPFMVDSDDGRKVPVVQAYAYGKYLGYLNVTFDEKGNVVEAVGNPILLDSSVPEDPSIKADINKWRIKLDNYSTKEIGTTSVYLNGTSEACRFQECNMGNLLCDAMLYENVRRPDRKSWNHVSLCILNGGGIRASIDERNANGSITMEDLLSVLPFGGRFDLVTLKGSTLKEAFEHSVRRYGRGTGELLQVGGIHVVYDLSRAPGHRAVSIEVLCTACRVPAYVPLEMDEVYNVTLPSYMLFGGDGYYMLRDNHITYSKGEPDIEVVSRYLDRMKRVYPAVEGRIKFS
As to the kind of experiment: SPR (ProteOn), CD73 variant immobilized. Here is the method:
Binding of MEDI9447 to wild-type and mutant CD73 proteins was measured by surface plasmon resonance (SPR) using a ProteOn instrument (BioRad). CD73 crude cell supernatant protein samples were diluted to 3 µg/ml in PBS, 0.005% Tween-20, pH 7.4 (BioRad) and immobilized to ~400 RU on a HTG tris-NTA sensor chip (BioRad) pre-activated with 10 mM NiSO₄, 10 mM MES, pH 6.0 (BioRad). An equivalently diluted crude cell supernatant sample from non-transfected cells was included as a reference channel control. Sensorgrams were recorded by flowing two-fold dilutions of MEDI9447 prepared in PBS, 0.005% Tween-20, pH 7.4, ranging from 5 nM to 0.31 nM. […] Antibody binding was measured at a flow rate of 100 µL/min with a 3 min association phase and 20 min dissociation phase. The sensor chip surface was regenerated between each run by an 800 s injection of 300 mM EDTA, pH 8.5 (BioRad) at a flow rate of 30 µL/min. Binding kinetics were analyzed using the ProteOn data analysis software. Double referencing was performed and, unless noted otherwise, a 1:1 Langmuir binding model was utilized to fit the data. Some CD73 variants containing mutations within the amino acid region 171-188 fit poorly to a 1:1 model (i.e., Chi² values >10% of Rmax). Where noted, these variants were fit with a heterogenous antigen (2:1) model. […]

For test [4], the target named is T3, Cynomolgus CD73 on MK-1 cells (cynomolgus, UniProt A0A2K5V5U7 27-549).
T3 construct: whole, on cells; also called MK-1 (cyno)
T3 sequence: T1 sequence with M199T, T350A, V466I
Description: flow cytometry, MK-1 cells. How it is done:
Binding of MEDI9447 to native CD73 expressed on human, murine, and cynomolgus monkey cell lines was characterized by flow cytometry. The cells were incubated with various concentrations of MEDI9447 and antibody binding was monitored with and fluorophore-labeled anti-human Fc antibody. A plot of the median fluorescence intensity as a function of the MEDI9447 concentration was fitted nonlinearly using a one-site binding isotherm model to calculate the equilibrium dissociation constant.

Residue numbers refer to the chain shown, from its start. Names and notes keep the numbering of the source.

B1: MEDI9447 (antibody, human IgG1, lambda, V domains shown)
VH: EVQLLESGGGLVQPGGSLRLSCAASGFTFSSYAYSWVRQAPGKGLEWVSAISGSGGRTYYADSVKGRFTISRDNSKNTLYLQMNSLRAEDTAVYYCARLGYGRVDEWGRGTLVTVSS
VL: QSVLTQPPSASGTPGQRVTISCSGSLSNIGRNPVNWYQQLPGTAPKLLIYLDNLRLSGVPDRFSGSKSGTSASLAISGLQSEDEADYYCATWDDSHPGWTFGGGTKLTVLG
notes: Human IgG1-TM (L234F, L235E, P331S), lambda light chain; also called clone 10.3 antibody; 73combo3
Turning to B1, the “FabZAP internalization, EC50, MDA-MB-231” value in test [1] came to 0.0035 nM. Further, the “Mean Fluorescence Intensity Ratio (MFIR)” value in test [2] is 7.9. For the same molecule, the Kd is 0.079 nM in test [3] and 0.084 nM in test [4].
